From patent publication US20250129167A1 (University of Texas, published 2025)

Tests used:
[1] = molecular target: T1, Mouse PD-L1-Fc (mouse, UniProt Q9EP73 19-238, limits assumed); assay: ForteBio Octet, IgG on sensor, Fc-fusion antigen in solution (avid)
T1 construct: also called murine PD-L1; not shown: Fc part of the fusion
Description: (§1) ForteBio KD measurements—ForteBio affinity measurements were performed on an Octet RED384 generally as previously described (sec, e.g., Estep et al., 2013). Briefly, ForteBio affinity measurements were performed by loading IgGs on-line onto AHQ sensors. Sensors were equilibrated off-line in assay buffer for 30 min and then monitored on-line for 60 seconds for baseline establishment. Sensors with loaded IgGs were exposed to 100 nM antigen for 3 minutes, and afterwards were transferred to assay buffer for 3 min for off-rate measurement. For monovalent affinity assessment Fabs were used instead of IgGs. For this assessment the unbiotinylated Fc fusion antigen was loaded on-line onto the AHQ sensors. Sensors were equilibrated off-line in assay buffer for 30 min and then monitored on-line for 60 seconds for baseline establishment. Sensors with loaded antigen were exposed to 100 nM Fab for 3 minutes, and afterwards they were transferred to assay buffer for 3 min for off-rate measurement. All kinetics were analyzed using the 1:1 binding model.

[2] = molecular target: T2, Cyno PD-L1-Fc (cyno, UniProt G7PSE7 19-238); assay: as above
T2 construct: not shown: The Fc part of the fusion and any linker to it
T2 sequence (G7PSE7 entry or part of it limits assumed): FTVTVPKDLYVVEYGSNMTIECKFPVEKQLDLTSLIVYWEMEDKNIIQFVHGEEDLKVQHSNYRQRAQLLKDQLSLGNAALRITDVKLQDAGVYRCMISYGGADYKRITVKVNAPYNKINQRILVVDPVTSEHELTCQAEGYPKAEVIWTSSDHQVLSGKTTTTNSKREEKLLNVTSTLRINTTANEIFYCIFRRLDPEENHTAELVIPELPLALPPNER
Description: as §1

[3] = molecular target: T3, Human PD-L1-Fc (human, UniProt Q9NZQ7 19-238); assay: as above
T3 construct: not shown: Fc part of the fusion
Description: as §1

[4] = molecular target: T4, Human PD-L2-Fc (human, UniProt Q9BQ51 20-220); assay: as above
T4 construct: not shown: Fc part of the fusion
T4 sequence: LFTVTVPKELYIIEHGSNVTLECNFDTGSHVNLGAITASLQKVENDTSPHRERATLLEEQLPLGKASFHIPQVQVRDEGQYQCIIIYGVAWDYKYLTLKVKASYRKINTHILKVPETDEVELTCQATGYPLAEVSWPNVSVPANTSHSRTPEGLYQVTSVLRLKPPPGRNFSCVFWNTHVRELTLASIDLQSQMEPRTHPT
Description: as §1

[5] = molecular target: T5, Cyno PD-L2-Fc (cyno, UniProt A0A2K5U5Z4 20-219); assay: as above
T5 construct: not shown: Fc part of the fusion
T5 sequence: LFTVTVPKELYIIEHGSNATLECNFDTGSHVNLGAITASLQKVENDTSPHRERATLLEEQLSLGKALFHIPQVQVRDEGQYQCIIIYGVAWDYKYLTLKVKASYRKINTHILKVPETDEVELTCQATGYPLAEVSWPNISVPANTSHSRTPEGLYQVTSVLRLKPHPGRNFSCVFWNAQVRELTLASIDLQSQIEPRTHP
Description: as §1

[6] = molecular target: T6, Mouse PD-L2-Fc (mouse, UniProt Q9WUL5 20-219, limits assumed); assay: column 'Species cross-reactivity'
T6 construct: also called murine PD-L2; not shown: Fc part of the fusion
T6 sequence (looked up): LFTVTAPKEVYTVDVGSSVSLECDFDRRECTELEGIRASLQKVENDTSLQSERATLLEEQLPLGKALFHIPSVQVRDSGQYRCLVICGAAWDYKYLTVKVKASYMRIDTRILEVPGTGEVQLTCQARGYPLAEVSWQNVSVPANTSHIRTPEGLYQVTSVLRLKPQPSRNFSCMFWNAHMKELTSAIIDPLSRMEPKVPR

[7] = molecular target: T7, PD-L2 on CHO-PD-L2 cells (Promega blockade system) (UniProt Q9BQ51 20-273, limits assumed); assay: cell-based or functional assay
T7 sequence (looked up): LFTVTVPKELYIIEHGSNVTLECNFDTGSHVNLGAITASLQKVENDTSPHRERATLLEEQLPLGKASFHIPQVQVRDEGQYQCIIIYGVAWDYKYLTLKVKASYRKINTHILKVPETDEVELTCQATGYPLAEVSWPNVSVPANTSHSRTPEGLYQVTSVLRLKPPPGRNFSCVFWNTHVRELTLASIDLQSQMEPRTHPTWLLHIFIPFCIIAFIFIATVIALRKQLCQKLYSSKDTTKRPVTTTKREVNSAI

[8] = molecular target: T6, Mouse PD-L2-Fc; assay: ForteBio Octet, IgG on sensor, Fc-fusion antigen in solution (avid)
Description: as §1

[9] = molecular target: T1, Mouse PD-L1-Fc; assay: column 'Species cross-reactivity'
[10] = molecular target: PD-L1 on CHO-PD-L1 cells (Promega blockade system) (UniProt Q9NZQ7 19-290, limits assumed); assay: cell-based or functional assay
[11] = molecular target: PD-L1 on CHO-PD-L1/PDL2 cells (Promega blockade system); assay: cell-based or functional assay
[12] = molecular target: PD-L2 on CHO-PD-L1/PDL2 cells (Promega blockade system); assay: cell-based or functional assay
[13] = molecular target: T3, Human PD-L1-Fc; assay: ForteBio Octet, Fc-fusion antigen on sensor, Fab in solution (monovalent)
Description: as §1

[14] = molecular target: T4, Human PD-L2-Fc; assay: as above
Description: as §1

T1 sequence (Q9EP73 19-238 limits assumed): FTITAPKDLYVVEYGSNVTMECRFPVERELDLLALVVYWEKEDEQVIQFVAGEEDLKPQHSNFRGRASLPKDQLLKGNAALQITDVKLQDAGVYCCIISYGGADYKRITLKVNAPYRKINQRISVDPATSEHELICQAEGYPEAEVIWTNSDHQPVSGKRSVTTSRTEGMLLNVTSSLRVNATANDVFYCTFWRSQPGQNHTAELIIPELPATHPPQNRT

B1: ADI-20236 (antibody, V domains shown)
VH: QVQLVQSGAEVKKPGSSVKVSCKASGGTFSSHAISWVRQAPGQGLEWMGGIIPIFGWALYAQKFQGRVTITADESTSTAYMELSSLRSEDTAVYYCARPGDHRASHFDYWGQGTLVTVSS
VL: DIQMTQSPSSVSASVGDRVTITCRASQGISSWLAWYQQKPGKAPKLLIYAASSLQSGVPSRFSGSGSGTDFTLTISSLQPEDFATYYCQQANSFPITFGGGTKVEIK
notes: Vk1-12 common light chain; also called PD-L2-C1-1; cLC-PDL2 (22731)
binding result [1]: no binding (tested: 100 nM)
binding result [2]: no binding (tested: 100 nM)
binding result [3]: no binding (tested: 100 nM)
Kd [4]: 416 pM
Kd [5]: 640 pM
binding result [6]: binds
EC50 (read off the curve); luciferase fold induction, Promega CHO-PD-L2 / PD-1 Jurkat assay [Cont'd] [7]: ~200 pM

B2: ADI-20241 (antibody, V domains shown)
VH: QVQLVQSGAEVKKPGSSVKVSCKASGGTFSEYAIVWVRQAPGQGLEWMGGIIPLFGTANYAQKFQGRVTITADESTSTAYMELSSLRSEDTAVYYCARPLDRRIVAFDIWGQGTMVTVSS
VL: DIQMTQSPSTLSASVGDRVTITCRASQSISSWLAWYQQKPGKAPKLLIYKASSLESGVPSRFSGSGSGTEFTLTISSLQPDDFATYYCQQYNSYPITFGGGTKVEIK
notes: Vk1-05 common light chain; also called PD-L2-C2-1; cLC-PDL2 (22726)
binding result [1]: no binding (tested: 100 nM)
binding result [2]: no binding (tested: 100 nM)
binding result [3]: no binding (tested: 100 nM)
Kd [4]: 487 pM
Kd [5]: 253 pM
binding result [6]: binds
EC50 (read off the curve); luciferase fold induction, Promega CHO-PD-L2 / PD-1 Jurkat assay [Cont'd] [7]: ~200 pM

B3: ADI-20225 (antibody, V domains shown)
VH: QVQLVQSGAEVKKPGASVKVSCKASGGTFRSYAIQWVRQAPGQGLEWMGWIIPGFGTANYAQKFQGRVTITADESTSTAYMELSSLRSEDTAVYYCARELSHGGLSYWGQGTLVTVSS
VL: B1 VL
notes: Vk1-12 common light chain; also called PD-L1-C1-1; cLC-PDL1 (22731)
binding result [8]: no binding (tested: 100 nM)
Kd [2]: 237 pM
Kd [3]: 223 pM
binding result [4]: no binding (tested: 100 nM)
binding result [5]: no binding (tested: 100 nM)
binding result [9]: binds
EC50 (read off the curve); luciferase fold induction, Promega CHO-PD-L1 / PD-1 Jurkat assay [10]: ~100 pM

B4: DiPDL candidate C1 (bispecific antibody, V domains shown)
VH 1: B3 VH
VH 2: B1 VH
VL: B1 VL
EC50 (read off the curve); luciferase fold induction, Promega CHO-PD-L1/PD-L2 / PD-1 Jurkat assay, combined blockade of PD-L1 and PD-L2 [Cont'd] [11]: ~200 pM
EC50 (read off the curve); luciferase fold induction, Promega CHO-PD-L1/PD-L2 / PD-1 Jurkat assay, combined blockade of PD-L1 and PD-L2 [Cont'd] [12]: ~200 pM

B5: DiPDL candidate C2 (bispecific antibody, V domains shown)
VH 1: QVQLVQSGAEVKKPGSSVKVSCKASGGTFSSYFISWVRQAPGQGLEWMGQIIPNVGTANYAQKFQGRVTITADESTSTAYMELSSLRSEDTAVYYCARDQTAKAHLVWGQGTLVTVSS
VH 2: B2 VH
VL: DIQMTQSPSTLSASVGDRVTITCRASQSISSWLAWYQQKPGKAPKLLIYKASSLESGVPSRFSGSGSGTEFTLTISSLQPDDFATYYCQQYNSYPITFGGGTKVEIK
EC50 (read off the curve); luciferase fold induction, Promega CHO-PD-L1/PD-L2 / PD-1 Jurkat assay, combined blockade of PD-L1 and PD-L2 [Cont'd] [11]: ~600 pM
EC50 (read off the curve); luciferase fold induction, Promega CHO-PD-L1/PD-L2 / PD-1 Jurkat assay, combined blockade of PD-L1 and PD-L2 [Cont'd] [12]: ~600 pM

B6: ADI-20230 (antibody, V domains shown)
VH: B5 VH 1
VL: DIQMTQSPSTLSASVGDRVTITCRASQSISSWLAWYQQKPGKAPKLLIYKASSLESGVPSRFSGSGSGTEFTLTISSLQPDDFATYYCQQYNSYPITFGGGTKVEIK
notes: Vk1-05 common light chain; also called PD-L1-C2-1; cLC-PDL1 (22726)
binding result [8]: no binding (tested: 100 nM)
binding result [1]: no binding (tested: 100 nM)
Kd [2]: 264 pM
Kd [3]: 205 pM
binding result [4]: no binding (tested: 100 nM)
binding result [5]: no binding (tested: 100 nM)
EC50 (read off the curve); luciferase fold induction, Promega CHO-PD-L1 / PD-1 Jurkat assay [10]: ~100 pM

B7: ADI-20230 Fab (Fab, V domains shown)
VH: B5 VH 1
VL: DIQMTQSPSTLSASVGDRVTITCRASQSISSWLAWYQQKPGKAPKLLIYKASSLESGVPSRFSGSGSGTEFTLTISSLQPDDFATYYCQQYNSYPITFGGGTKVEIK
notes: also called cLC-PDL1 (22726) Fab
Kd [13]: 823 pM
binding result [14]: no binding (tested: 100 nM)

B8: ADI-20236 Fab (Fab, V domains shown)
VH: B1 VH
VL: B1 VL
notes: also called cLC-PDL2 (22731) Fab
binding result [13]: no binding (tested: 100 nM)
Kd [14]: 541 pM

B9: ADI-20241 Fab (Fab, V domains shown)
VH: B2 VH
VL: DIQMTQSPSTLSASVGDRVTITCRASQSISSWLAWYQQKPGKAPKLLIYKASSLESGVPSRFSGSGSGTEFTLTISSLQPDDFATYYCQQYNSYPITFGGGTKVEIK
notes: also called cLC-PDL2 (22726) Fab
binding result [13]: no binding (tested: 100 nM)
Kd [14]: 1990 pM

B10: ADI-20225 Fab (Fab, V domains shown)
VH: B3 VH
VL: B1 VL
notes: also called cLC-PDL1 (22731) Fab
Kd [13]: 833 pM
binding result [14]: no binding (tested: 100 nM)
